# Measurements as given in PMC4961739, “Regulation of post-Golgi LH3 trafficking is essential for collagen homeostasis” (Nature Communications, 2016).
# T1: His6-cMyc4-tagged VPS33B (human, UniProt Q9H267 1-617)
# T1 construct: VPS33B, human, UniProt Q9H267; construct pUPE.02.13-VPS33B; also called pUPE.02.13-VPS33B; recombinant tagged VPS33B; source: HEK293 cells stably expressing Epstein-Barr virus Nuclear Antigen I, co-transfected with VIPAR; in lysate, then co-purified with VIPAR (Streptactin Sepharose, Superdex 200); not shown: His6-cMyc4, N-terminal, kept
# T1 sequence (looked up): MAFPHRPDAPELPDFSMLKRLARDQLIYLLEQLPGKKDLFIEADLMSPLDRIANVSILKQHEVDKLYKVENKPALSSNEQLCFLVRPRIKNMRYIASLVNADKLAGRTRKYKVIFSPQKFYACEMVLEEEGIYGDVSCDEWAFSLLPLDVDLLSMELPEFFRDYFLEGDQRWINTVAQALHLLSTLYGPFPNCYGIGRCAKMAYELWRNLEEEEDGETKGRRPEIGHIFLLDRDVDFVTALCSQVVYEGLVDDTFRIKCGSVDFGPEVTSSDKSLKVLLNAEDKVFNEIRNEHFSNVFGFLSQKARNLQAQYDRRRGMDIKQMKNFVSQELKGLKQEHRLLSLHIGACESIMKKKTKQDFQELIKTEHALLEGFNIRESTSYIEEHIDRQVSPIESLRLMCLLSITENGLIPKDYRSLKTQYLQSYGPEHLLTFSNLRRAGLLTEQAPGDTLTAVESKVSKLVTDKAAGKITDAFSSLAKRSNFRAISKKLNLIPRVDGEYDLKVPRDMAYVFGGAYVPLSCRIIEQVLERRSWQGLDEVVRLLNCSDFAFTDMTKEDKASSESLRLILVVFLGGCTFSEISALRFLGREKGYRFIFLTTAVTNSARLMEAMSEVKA
# Target: T1, His6-cMyc4-tagged VPS33B
# Test: affinity purification with mass spectrometry; His6-StrepII3-VIPAR and His6-cMyc4-VPS33B coexpressed in HEK293 cells; soluble lysate (0.3% NP-40, NaCl to 300 mM) on Streptactin Sepharose, eluted with 2.5 mM desthiobiotin, Superdex 200; purified sample analysed by LC-MS/MS
# Conditions: partners not purified
binder,measurement,value
"His6-StrepII3-tagged VIPAR (natural protein, human, UniProt Q9H9C1 1-493, looked up, VIPAR (VIPAS39), human, UniProt Q9H9C1; construct pUPE.02.09-VIPAR; also called pUPE.02.09-VIPAR; recombinant tagged VIPAR; source: HEK293 cells stably expressing Epstein-Barr virus Nuclear Antigen I, co-transfected with VPS33B; in lysate, then purified (Streptactin Sepharose, Superdex 200); not shown: His6-StrepII3, N-terminal, kept) MNRTKGDEEEYWNSSKFKAFTFDDEDDELSQLKESKRAVNSLRDFVDDDDDDDLERVSWSGEPVGSISWSIRETAGNSGSTHEGREQLKSRNSFSSYAQLPKPTSTYSLSSFFRGRTRPGSFQSLSDALSDTPAKSYAPELGRPKGEYRDYSNDWSPSDTVRRLRKGKVCSLERFRSLQDKLQLLEEAVSMHDGNVITAVLIFLKRTLSKEILFRELEVRQVALRHLIHFLKEIGDQKLLLDLFRFLDRTEELALSHYREHLNIQDPDKRKEFLKTCVGLPFSAEDSAHIQDHYTLLERQIIIEANDRHLESAGQTEIFRKHPRKASILNMPLVTTLFYSCFYHYTEAEGTFSSPVNLKKTFKIPDKQYVLTALAARAKLRAWNDVDALFTTKNWLGYTKKRAPIGFHRVVEILHKNNAPVQILQEYVNLVEDVDTKLNLATKFKCHDVVIDTYRDLKDRQQLLAYRSKVDKGSAEEEKIDALLSSSQIRWKN",binding result,binds
